Here are results for 66 substances from the array DNA melting data of Ke et al..

A short description of this data set: melting temperature; melt of duplexes. To be noted: sodium 0.0675 M; strand 1 µM.
On to “CGACGTGCCTTATGTGCTG+CAGCACATGTCGCACGTCG ((((((((...((((((((+))))))))...))))))))”, for which the Tm was 47.8 °C. For “CGACGTGCAAAATGTGCTG+CAGCACATAGGGCACGTCG ((((((((...((((((((+))))))))...))))))))” the value was 48.7 °C; for “CGACGTGCAGGATGTGCTG+CAGCACATAGCGCACGTCG ((((((((...((((((((+))))))))...))))))))”, 49.6 °C; for “CGACGTGCCAAATGTGCTG+CAGCACATCCGGCACGTCG (((((((((..((((((((+))))))))..)))))))))”, 53.3 °C. As for “CGACGTGCTCTATGTGCTG+CAGCACATGAAGCACGTCG (((((((((..((((((((+))))))))..)))))))))”, the Tm turned out to be 53 °C. For “CGACGTGCGGTATGTGCTG+CAGCACATAGTGCACGTCG ((((((((..(((((((((+)))))))))..))))))))”, the Tm was 53 °C. On to “CGACGTGCTGTATGTGCTG+CAGCACATCTCGCACGTCG ((((((((...((((((((+))))))))...))))))))”, for which the Tm stood at 48.9 °C.

With “CGACGTGCTCCATGTGCTG+CAGCACATCAGGCACGTCG ((((((((...((((((((+))))))))...))))))))”, the Tm was determined as 48.6 °C. For “CGACGTGCTCGATGTGCTG+CAGCACATCTTGCACGTCG ((((((((..(((((((((+)))))))))..))))))))”, the Tm was 53.3 °C.

“CGACGTGCGATATGTGCTG+CAGCACATCGCGCACGTCG (((((((((..((((((((+))))))))..)))))))))”: the Tm was found to be 53.6 °C.

Regarding “CGACGTGCCCCATGTGCTG+CAGCACATCATGCACGTCG ((((((((...((((((((+))))))))...))))))))”, the Tm was found to be 46.5 °C.

In the case of “CGACGTGCTATATGTGCTG+CAGCACATACGGCACGTCG ((((((((..(((((((((+)))))))))..))))))))”, the Tm is 50.7 °C. Regarding “CGACGTGCCCCATGTGCTG+CAGCACATAATGCACGTCG ((((((((...((((((((+))))))))...))))))))”, the Tm worked out at 45.8 °C.

In the case of “CGACGTGCTGGATGTGCTG+CAGCACATTGTGCACGTCG ((((((((...((((((((+))))))))...))))))))”, the Tm turned out to be 48.3 °C. Regarding “CGACGTGCCGTATGTGCTG+CAGCACATCTTGCACGTCG ((((((((...((((((((+))))))))...))))))))”, the Tm is 48.5 °C.

Turning to “CGACGTGCCAAATGTGCTG+CAGCACATCGCGCACGTCG ((((((((...((((((((+))))))))...))))))))”, the Tm was found to be 48.2 °C. Turning to “CGACGTGCTAGATGTGCTG+CAGCACATTCAGCACGTCG (((((((((..((((((((+))))))))..)))))))))”, the Tm came out at 52.8 °C.

On to “CGACGTGCCAGATGTGCTG+CAGCACATCCGGCACGTCG (((((((((.(((((((((+))))))))).)))))))))”, for which the Tm was found to be 59.2 °C.

As to “CGACGTGCATAATGTGCTG+CAGCACATCCGGCACGTCG ((((((((...((((((((+))))))))...))))))))”, the Tm was 48.3 °C. Turning to “CGACGTGCACTATGTGCTG+CAGCACATGGCGCACGTCG ((((((((.(.((((((((+)))))))).).))))))))”, the Tm worked out at 50.3 °C. Consider “CGACGTGCGACATGTGCTG+CAGCACATCCCGCACGTCG (((((((((..((((((((+))))))))..)))))))))”, for which the Tm was 52.3 °C. As to “CGACGTGCGAAATGTGCTG+CAGCACATGGAGCACGTCG ((((((((...((((((((+))))))))...))))))))”, the Tm worked out at 60.7 °C. Regarding “CGACGTGCTTCATGTGCTG+CAGCACATGGAGCACGTCG (((((((((.(((((((((+))))))))).)))))))))”, the Tm is 60 °C. For “CGACGTGCAGTATGTGCTG+CAGCACATAATGCACGTCG (((((((((.(((((((((+))))))))).)))))))))” the value was 57 °C; for “CGACGTGCTCCATGTGCTG+CAGCACATCCAGCACGTCG (((((((((..((((((((+))))))))..)))))))))”, 48.7 °C; for “CGACGTGCAATATGTGCTG+CAGCACATATTGCACGTCG (((((((((((((((((((+)))))))))))))))))))”, 61.2 °C.

In the case of “CGACGTGCGATATGTGCTG+CAGCACATAGCGCACGTCG (((((((((.(((((((((+))))))))).)))))))))”, the Tm worked out at 61.3 °C. “CGACGTGCCCTATGTGCTG+CAGCACATTAAGCACGTCG ((((((((...((((((((+))))))))...))))))))”: the Tm is 48.7 °C. As to “CGACGTGCTCGATGTGCTG+CAGCACATTCTGCACGTCG ((((((((...((((((((+))))))))...))))))))”, the Tm was 49.4 °C.

With “CGACGTGCATCATGTGCTG+CAGCACATTCCGCACGTCG ((((((((...((((((((+))))))))...))))))))”, the Tm is 46.6 °C.

As to “CGACGTGCACTATGTGCTG+CAGCACATAATGCACGTCG (((((((((.(((((((((+))))))))).)))))))))”, the Tm stood at 51.2 °C. As for “CGACGTGCACTATGTGCTG+CAGCACATTCAGCACGTCG ((((((((...((((((((+))))))))...))))))))”, the Tm was 43.4 °C. With “CGACGTGCCTTATGTGCTG+CAGCACATCATGCACGTCG ((((((((.(.((((((((+)))))))).).))))))))”, the Tm came out at 47.7 °C. Consider “CGACGTGCCTCATGTGCTG+CAGCACATGTTGCACGTCG ((((((((..(((((((((+)))))))))..))))))))”, for which the Tm was found to be 52.3 °C.

With “CGACGTGCAGAATGTGCTG+CAGCACATAGGGCACGTCG ((((((((...((((((((+))))))))...))))))))”, the Tm was 49.2 °C.

On to “CGACGTGCGTAATGTGCTG+CAGCACATGTAGCACGTCG ((((((((...((((((((+))))))))...))))))))”, for which the Tm was determined as 58.1 °C. Consider “CGACGTGCAAGATGTGCTG+CAGCACATCTAGCACGTCG ((((((((.((((((((((+)))))))))).))))))))”, for which the Tm is 57.9 °C.

As to “CGACGTGCTGAATGTGCTG+CAGCACATAGGGCACGTCG ((((((((...((((((((+))))))))...))))))))”, the Tm is 50.7 °C. For “CGACGTGCGAGATGTGCTG+CAGCACATCTGGCACGTCG ((((((((.((((((((((+)))))))))).))))))))” the value was 59 °C.

“CGACGTGCTGTATGTGCTG+CAGCACATGTGGCACGTCG ((((((((...((((((((+))))))))...))))))))”: the Tm was determined as 51 °C. “CGACGTGCCGGATGTGCTG+CAGCACATCAAGCACGTCG ((((((((..(((((((((+)))))))))..))))))))”: the Tm is 54.8 °C. Take “CGACGTGCGTAATGTGCTG+CAGCACATTACGCACGTCG (((((((((((((((((((+)))))))))))))))))))”: the Tm was 63.9 °C. For “CGACGTGCTGCATGTGCTG+CAGCACATTAGGCACGTCG ((((((((...((((((((+))))))))...))))))))” the value was 50.4 °C; for “CGACGTGCCACATGTGCTG+CAGCACATACGGCACGTCG (((((((((..((((((((+))))))))..)))))))))”, 53.4 °C; for “CGACGTGCGGAATGTGCTG+CAGCACATCTTGCACGTCG ((((((((...((((((((+))))))))...))))))))”, 50.8 °C. For “CGACGTGCCTCATGTGCTG+CAGCACATTCAGCACGTCG ((((((((...((((((((+))))))))...))))))))” the value was 47.9 °C. For the substance “CGACGTGCCCCATGTGCTG+CAGCACATGATGCACGTCG ((((((((..(((((((((+)))))))))..))))))))”, the melting temperature (Tm) was 51.8 °C. On to “CGACGTGCTGAATGTGCTG+CAGCACATCCCGCACGTCG ((((((((.(.((((((((+)))))))).).))))))))”, for which the Tm amounted to 51 °C. Consider “CGACGTGCAGAATGTGCTG+CAGCACATTAGGCACGTCG ((((((((..(((((((((+)))))))))..))))))))”, for which the Tm turned out to be 54.1 °C. In the case of “CGACGTGCACGATGTGCTG+CAGCACATACCGCACGTCG ((((((((...((((((((+))))))))...))))))))”, the Tm came out at 43.6 °C. With “CGACGTGCGTTATGTGCTG+CAGCACATCGGGCACGTCG ((((((((...((((((((+))))))))...))))))))”, the midpoint of thermal melting (Tm) was found to be 48.6 °C. Take “CGACGTGCACCATGTGCTG+CAGCACATGGGGCACGTCG ((((((((.((((((((((+)))))))))).))))))))”: the Tm came out at 62.8 °C.

Consider “CGACGTGCCACATGTGCTG+CAGCACATCTGGCACGTCG ((((((((((.((((((((+)))))))).))))))))))”, for which the Tm was determined as 55.2 °C.

With “CGACGTGCCTGATGTGCTG+CAGCACATTTAGCACGTCG ((((((((...((((((((+))))))))...))))))))”, the Tm is 49.6 °C.

As for “CGACGTGCCTAATGTGCTG+CAGCACATGCGGCACGTCG (((((((((..((((((((+))))))))..)))))))))”, the Tm turned out to be 53.3 °C. Turning to “CGACGTGCTCGATGTGCTG+CAGCACATTAGGCACGTCG ((((((((...((((((((+))))))))...))))))))”, the Tm came out at 50.9 °C.

Take “CGACGTGCACAATGTGCTG+CAGCACATAGAGCACGTCG ((((((((.(.((((((((+)))))))).).))))))))”: the Tm was found to be 48.4 °C. Turning to “CGACGTGCTTCATGTGCTG+CAGCACATCTCGCACGTCG ((((((((...((((((((+))))))))...))))))))”, the Tm was 47 °C. With “CGACGTGCTAAATGTGCTG+CAGCACATACAGCACGTCG (((((((((..((((((((+))))))))..)))))))))”, the Tm is 51.9 °C. On to “CGACGTGCACAATGTGCTG+CAGCACATCGCGCACGTCG ((((((((.(.((((((((+)))))))).).))))))))”, for which the Tm turned out to be 48.5 °C.

For the substance “CGACGTGCACTATGTGCTG+CAGCACATTCCGCACGTCG ((((((((...((((((((+))))))))...))))))))”, the midpoint of thermal melting (Tm) came to 42.2 °C. For “CGACGTGCGGCATGTGCTG+CAGCACATACCGCACGTCG ((((((((((.((((((((+)))))))).))))))))))” the value was 60 °C; for “CGACGTGCTGAATGTGCTG+CAGCACATGTAGCACGTCG (((((((((..((((((((+))))))))..)))))))))”, 54.3 °C; for “CGACGTGCTCAATGTGCTG+CAGCACATACGGCACGTCG ((((((((...((((((((+))))))))...))))))))”, 48.1 °C. “CGACGTGCCGAATGTGCTG+CAGCACATCGTGCACGTCG ((((((((...((((((((+))))))))...))))))))”: the Tm was found to be 51.9 °C.

Regarding “CGACGTGCTCAATGTGCTG+CAGCACATCATGCACGTCG ((((((((...((((((((+))))))))...))))))))”, the Tm turned out to be 49.7 °C.

The Tm is the temperature at which the thermal transition is half complete.
